Patent publication US20050020492A1 (MERCK, published 2005)
Read-outs that look alike come from different tables or passages of the source. Positions of bridges follow the written chain, without caps; N, C: chain ends. Non-standard residues stand in square brackets, D forms with d. No end group written: not given here. dCit = NC(=O)NCCC[C@@H](N)C(=O)O; Nle = CCCC[C@H](N)C(=O)O

Tests used:
[1] = molecular target: T1, human MCH-2R (human, UniProt Q969V1 1-340); assay: SPA, total against non-specific binding (500 nM unlabeled hMCH)
[2] = molecular target: T2, human MCH-1R (human, UniProt Q99705 1-353); assay: as above
[3] = molecular target: T2, human MCH-1R; assay: ratio of the two SPA IC50s
[4] = molecular target: T1, human MCH-2R; assay: SPA, displacement of [125I]-[Phe13,Tyr19]-hMCH, MCH-2R membranes
[5] = molecular target: T2, human MCH-1R; assay: SPA, displacement of [125I]-[Phe13,Tyr19]-hMCH, CHO/MCH-1R membranes
[6] = molecular target: T1, human MCH-2R; assay: cell-based or functional assay
[7] = molecular target: T2, human MCH-1R; assay: cell-based or functional assay
[8] = molecular target: T2, human MCH-1R; assay: SPA, displacement of [125I]-[Phe13,Tyr19]-hMCH, CHO/MCH-1R membranes
Procedure: (§1) After equilibrating at room temperature for 3 hours, the plates were read in a TopCount (Packard, Meriden, Conn.). IC₅₀ calculations were performed using Prism 3.0 (GraphPad. Software, San Diego, Calif.). The IC₅₀ values were measured in three different experiments.

[9] = molecular target: T2, human MCH-1R; assay: cell-based or functional assay; remark: listed apart in the source
[10] = molecular target: T2, human MCH-1R; assay: cell-based or functional assay; remark: listed apart in the source
[11] = molecular target: T2, human MCH-1R; assay: cell-based or functional assay; remark: listed apart in the source
[12] = molecular target: T2, human MCH-1R; assay: SPA, displacement of [125I]-[Phe13,Tyr19]-hMCH, CHO/MCH-1R membranes; remark: listed apart in the source
Procedure: as §1

[13] = molecular target: T1, human MCH-2R; assay: SPA, displacement of [125I]-[Phe13,Tyr19]-hMCH, MCH-2R membranes
Procedure: as §1

[14] = molecular target: T2, human MCH-1R; assay: SPA, displacement of [125I]-[Phe13,Tyr19]-hMCH, CHO/MCH-1R membranes; remark: listed apart in the source
Procedure: as §1

[15] = molecular target: T1, human MCH-2R; assay: SPA, displacement of [125I]-[Phe13,Tyr19]-hMCH, MCH-2R membranes; remark: listed apart in the source
Procedure: as §1

[16] = molecular target: T1, human MCH-2R; assay: as above; remark: listed apart in the source
Procedure: as §1

[17] = molecular target: T2, human MCH-1R; assay: ratio of the two SPA IC50s
[18] = molecular target: T1, human MCH-2R; assay: cell-based or functional assay; remark: listed apart in the source
[19] = molecular target: T2, human MCH-1R; assay: cell-based or functional assay; remark: listed apart in the source
[20] = molecular target: T1, human MCH-2R; assay: cell-based or functional assay; remark: listed apart in the source
[21] = molecular target: T2, human MCH-1R; assay: ratio of the two SPA IC50s; remark: listed apart in the source
Procedure: as §1

[22] = molecular target: T1, human MCH-2R; assay: cell-based or functional assay; remark: listed apart in the source
[23] = molecular target: T1, human MCH-2R; assay: cell-based or functional assay; remark: listed apart in the source
[24] = molecular target: T2, human MCH-1R; assay: ratio of the two SPA IC50s; remark: listed apart in the source
[25] = molecular target: T1, human MCH-2R; assay: SPA radioligand binding assay
Procedure: as §1

[26] = molecular target: T2, human MCH-1R; assay: SPA radioligand binding assay
Procedure: as §1

T1 sequence (Q969V1 whole entry): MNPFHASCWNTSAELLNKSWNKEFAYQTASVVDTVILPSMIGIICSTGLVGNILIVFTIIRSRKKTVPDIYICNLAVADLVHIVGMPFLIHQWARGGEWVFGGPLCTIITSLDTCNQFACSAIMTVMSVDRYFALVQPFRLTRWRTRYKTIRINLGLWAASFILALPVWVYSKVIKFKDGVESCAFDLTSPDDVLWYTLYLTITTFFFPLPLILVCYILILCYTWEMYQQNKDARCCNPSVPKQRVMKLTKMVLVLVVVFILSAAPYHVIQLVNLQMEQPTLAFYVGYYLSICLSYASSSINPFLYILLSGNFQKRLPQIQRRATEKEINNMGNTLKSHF
T2 sequence (Q99705 whole entry): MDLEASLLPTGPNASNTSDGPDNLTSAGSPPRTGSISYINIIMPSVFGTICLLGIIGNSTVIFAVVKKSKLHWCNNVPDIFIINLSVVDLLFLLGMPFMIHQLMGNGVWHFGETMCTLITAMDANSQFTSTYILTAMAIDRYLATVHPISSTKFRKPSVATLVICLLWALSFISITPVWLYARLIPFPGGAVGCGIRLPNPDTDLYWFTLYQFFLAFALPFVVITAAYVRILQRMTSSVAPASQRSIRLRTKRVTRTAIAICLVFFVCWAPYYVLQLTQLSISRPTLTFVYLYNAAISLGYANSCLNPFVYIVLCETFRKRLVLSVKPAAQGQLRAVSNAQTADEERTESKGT

[^125I]-[Phe^13Tyr^19]-hMCH (peptide)
specific binding window [1]: 3 ×
specific binding window [2]: > 6 ×

[dR]C[Nle]LNRVYRPC-NH2 (disulfide 2-11 (inferred)) [SEQ. ID. NO. 32 (ΔAc, D-Arg^6, Nle^8, Asn^10 analog of Ac-hMCH(6-16)-NH2)]
Selectivity 2/1 (MCH-2R/MCH-1R IC50 ratio) [3]: 890
IC50 [4]: 250 nM
IC50 [5]: 0.09 nM
Activation %, aequorin bioluminescence [6]: 53%
EC50, aequorin bioluminescence [6]: 1470 nM
Activation %, aequorin bioluminescence [7]: 130%
EC50, aequorin bioluminescence [7]: 350 nM
Selectivity 2/1 (MCH-2R/MCH-1R EC50 activity ratio) [7]: 4

Ac-[dCit]CMLNRVYRPC-NH2 (disulfide 2-11 (inferred)) [SEQ. ID. NO. 34 (D-Cit^6, Asn^10 analog of Ac-hMCH(6-16)-NH2)]
IC50 [5]: 8.3 nM
Activation %, aequorin bioluminescence [6]: 8%
EC50, aequorin bioluminescence [6]: > 10000 nM
Activation %, aequorin bioluminescence [7]: 110%
EC50, aequorin bioluminescence [7]: 1460 nM

Ac-RCMLGRVYRPC-NH2 (disulfide 2-11 (inferred), also called ID; NO; parent compound) [Ac-hMCH(6-16)-NH2]
IC50 [8]: 0.5 nM
Activation %, aequorin bioluminescence [9]: 99%
EC50, aequorin bioluminescence [9]: 20 nM
Activation %, aequorin bioluminescence [10]: 99%
EC50, aequorin bioluminescence [10]: 20 nM
Activation %, aequorin bioluminescence [11]: 99%
EC50, aequorin bioluminescence [11]: 20 nM
IC50 [12]: 0.5 nM
IC50 [13]: 2 nM
IC50 [14]: 1.4 nM
IC50 [15]: 2 nM
IC50 [16]: 2 nM

Ac-RCMLARVYRPC-NH2 (disulfide 2-11 (inferred)) [SEQ. ID. NO. 16 (Ala^10 analog of Ac-hMCH(6-16)-NH2)]
Selectivity 2/1 (MCH-2R/MCH-1R IC50 ratio) [17]: 16 ratio
IC50 [8]: 0.44 nM
Activation %, aequorin bioluminescence [18]: 102%
EC50, aequorin bioluminescence [18]: 15 nM
Activation %, aequorin bioluminescence [10]: 121%
EC50, aequorin bioluminescence [10]: 51 nM
Selectivity 2/1 (MCH-2R/MCH-1R EC50 activity ratio) [10]: 0.29 ratio
IC50 [15]: 7 nM

Ac-RCMLLRVYRPC-NH2 (disulfide 2-11 (inferred)) [SEQ. ID. NO. 17 (Leu^10 analog of Ac-hMCH(6-16)-NH2)]
Selectivity 2/1 (MCH-2R/MCH-1R IC50 ratio) [17]: 1900 ratio
IC50 [8]: 0.03 nM
Activation %, aequorin bioluminescence [18]: 74%
EC50, aequorin bioluminescence [18]: 57 nM
Activation %, aequorin bioluminescence [10]: 123%
EC50, aequorin bioluminescence [10]: 32 nM
Selectivity 2/1 (MCH-2R/MCH-1R EC50 activity ratio) [10]: 1.8 ratio
IC50 [15]: 27 nM

B1: SEQ. ID. NO. 29 (D-Arg^6, Asn^10 analog of Ac-hMCH(6-16)-NH2) (peptide)
peptide: XCMLNRVYRPC
HELM: PEPTIDE1{[ac].[dR].C.M.L.N.R.V.Y.R.P.C.[am]}$PEPTIDE1,PEPTIDE1,3:R3-12:R3$$$V2.0
SMILES: CSCC[C@@H]1NC(=O)[C@@H](NC(=O)[C@@H](CCCNC(=N)N)NC(C)=O)CSSC[C@@H](C(N)=O)NC(=O)[C@@H]2CCCN2C(=O)[C@H](CCCNC(=N)N)NC(=O)[C@H](Cc2ccc(O)cc2)NC(=O)[C@H](C(C)C)NC(=O)[C@H](CCCNC(=N)N)NC(=O)[C@H](CC(N)=O)NC(=O)[C@H](CC(C)C)NC1=O
fold more selective as agonist for hMCH-1R than hMCH-2R [19]: ~150 fold
Activation %, aequorin bioluminescence [20]: 20%
EC50, aequorin bioluminescence [20]: 8400 nM
Activation %, aequorin bioluminescence [9]: 120%
EC50, aequorin bioluminescence [9]: 55 nM
Selectivity 2/1 (MCH-2R/MCH-1R EC50 activity ratio) [9]: 150 ratio
IC50 [12]: 0.5 nM
Selectivity 2/1 (MCH-2R/MCH-1R IC50 ratio) [21]: 6600 ratio
IC50 [13]: 3300 nM

B2: SEQ. ID. NO. 30 (D-Arg^6, Gln^10 analog of Ac-hMCH(6-16)-NH2) (peptide)
peptide: XCMLQRVYRPC
HELM: PEPTIDE1{[ac].[dR].C.M.L.Q.R.V.Y.R.P.C.[am]}$PEPTIDE1,PEPTIDE1,3:R3-12:R3$$$V2.0
SMILES: CSCC[C@@H]1NC(=O)[C@@H](NC(=O)[C@@H](CCCNC(=N)N)NC(C)=O)CSSC[C@@H](C(N)=O)NC(=O)[C@@H]2CCCN2C(=O)[C@H](CCCNC(=N)N)NC(=O)[C@H](Cc2ccc(O)cc2)NC(=O)[C@H](C(C)C)NC(=O)[C@H](CCCNC(=N)N)NC(=O)[C@H](CCC(N)=O)NC(=O)[C@H](CC(C)C)NC1=O
fold more selective as agonist for hMCH-1R than hMCH-2R [19]: ~150 fold
Activation %, aequorin bioluminescence [20]: 11%
EC50, aequorin bioluminescence [20]: > 10000 nM
Activation %, aequorin bioluminescence [9]: 74%
EC50, aequorin bioluminescence [9]: 2300 nM
IC50 [12]: 6.1 nM
Selectivity 2/1 (MCH-2R/MCH-1R IC50 ratio) [21]: 230 ratio
IC50 [13]: 1400 nM

B3: SEQ. ID. NO. 33 (D-Arg^6, Asn^10, Ala^14 analog of Ac-hMCH(6-16)-NH2) (peptide)
peptide: XCMLNRVYAPC
HELM: PEPTIDE1{[ac].[dR].C.M.L.N.R.V.Y.A.P.C.[am]}$PEPTIDE1,PEPTIDE1,3:R3-12:R3$$$V2.0
SMILES: CSCC[C@@H]1NC(=O)[C@@H](NC(=O)[C@@H](CCCNC(=N)N)NC(C)=O)CSSC[C@@H](C(N)=O)NC(=O)[C@@H]2CCCN2C(=O)[C@H](C)NC(=O)[C@H](Cc2ccc(O)cc2)NC(=O)[C@H](C(C)C)NC(=O)[C@H](CCCNC(=N)N)NC(=O)[C@H](CC(N)=O)NC(=O)[C@H](CC(C)C)NC1=O
fold more selective with respect to hMCH-2R [19]: ~50 fold
fold weaker agonist than the parent compound [19]: 5 fold
Activation %, aequorin bioluminescence [20]: 17%
EC50, aequorin bioluminescence [20]: > 10000 nM
Activation %, aequorin bioluminescence [9]: 109%
EC50, aequorin bioluminescence [9]: 260 nM
IC50 [12]: 3.2 nM

DFDMLRCMLGRVYRPCWQV (disulfide 7-16 (inferred)) [human MCH]
Activation %, aequorin bioluminescence [20]: 100%
EC50, aequorin bioluminescence [20]: 30.7 nM
Activation %, aequorin bioluminescence [9]: 100%
Activation %, aequorin bioluminescence [18]: 100%
EC50, aequorin bioluminescence [18]: 30.7 nM
Activation %, aequorin bioluminescence [10]: 100%
Activation %, aequorin bioluminescence [22]: 100%
EC50, aequorin bioluminescence [22]: 30.7 nM
Activation %, aequorin bioluminescence [11]: 100%
IC50 [13]: 0.5 nM
IC50 [15]: 0.5 nM
IC50 [16]: 0.5 nM

B4: SEQ. ID. NO. 31 (D-Arg^6, Nle^8, Asn^10 analog of Ac-hMCH(6-16)-NH2) (peptide)
peptide: XCXLNRVYRPC
HELM: PEPTIDE1{[ac].[dR].C.[Nle].L.N.R.V.Y.R.P.C.[am]}$PEPTIDE1,PEPTIDE1,3:R3-12:R3$$$V2.0
SMILES: CCCC[C@@H]1NC(=O)[C@@H](NC(=O)[C@@H](CCCNC(=N)N)NC(C)=O)CSSC[C@@H](C(N)=O)NC(=O)[C@@H]2CCCN2C(=O)[C@H](CCCNC(=N)N)NC(=O)[C@H](Cc2ccc(O)cc2)NC(=O)[C@H](C(C)C)NC(=O)[C@H](CCCNC(=N)N)NC(=O)[C@H](CC(N)=O)NC(=O)[C@H](CC(C)C)NC1=O
Activation %, aequorin bioluminescence [20]: 23%
EC50, aequorin bioluminescence [20]: 5500 nM
Activation %, aequorin bioluminescence [9]: 130%
EC50, aequorin bioluminescence [9]: 240 nM
Selectivity 2/1 (MCH-2R/MCH-1R EC50 activity ratio) [9]: 23 ratio
IC50 [12]: 0.28 nM
Selectivity 2/1 (MCH-2R/MCH-1R IC50 ratio) [21]: 5700 ratio
IC50 [13]: 1600 nM

B5: SEQ. ID. NO. 15 (Δ(X^6-Cys^7), Mpr^7 analog of Ac-hMCH(6-16)-NH2) (peptide)
peptide: XMLGRVYRPC
modifications: Ac-Arg^6 segment eliminated; Mpr, des-amino-cysteine (3-mercaptopropionic acid) at position 7 instead of Cys; C-terminal amide; disulfide ring
EC50 [23]: > 3000 nM
fold lower activity than Ac-hMCH(6-16)-NH2 [19]: ~30 fold
Activation %, aequorin bioluminescence [22]: 47%
EC50, aequorin bioluminescence [22]: 3100 nM
Activation %, aequorin bioluminescence [11]: 92%
EC50, aequorin bioluminescence [11]: 610 nM
Selectivity 2/1 (MCH-2R/MCH-1R EC50 activity ratio) [11]: 5 ratio
Selectivity 2/1 (MCH-2R/MCH-1R IC50 ratio) [24]: 500 ratio
IC50 [25]: > 3000 nM
fold lower binding affinity than Ac-hMCH(6-16)-NH2 [26]: ~5 fold
IC50 [14]: 7 nM
IC50 [16]: 3500 nM

B6: SEQ. ID. NO. 14 (Ac-D-Cit^6 analog of Ac-hMCH(6-16)-NH2) (peptide)
peptide: XCMLGRVYRPC
modifications: N-terminal acetyl; D-Cit (D-citrulline) at position 6; C-terminal amide; disulfide cycle
Activation %, aequorin bioluminescence [22]: 68%
EC50, aequorin bioluminescence [22]: 310 nM
Activation %, aequorin bioluminescence [11]: 91%
EC50, aequorin bioluminescence [11]: 920 nM
IC50 [14]: 3 nM
IC50 [16]: 134 nM
